# Laboratory results as given in IntAct's records for PubMed 21223507.
# B1: Eukaryotic translation initiation factor 2-alpha kinase 1 (Mus musculus), Q9Z2R9 (parent)
# chain: MLGGSSVDGERDTDDDAAGAVAAPPAIDFPAEVSDPKYDESDVPAELQVLKEPLQQPTFPFLVANQLLLVSLLEHLSHVHEPNPLHSKQVFKLLCQTFIKMGLLSSFTCSDEFSSLRLHHNRAITHLMRSAKERVRQDPCQDNSYMQKIRSREIAFEAQTSRYLNEFEELAILGKGGYGRVYKVRNKLDGQHYAIKKILIKSATKTDCMKVLREVKVLAGLQHPNIVGYHTAWIEHVHVVQPQDRVPIQLPSLEVLSEQEGDRDQGGVKDNESSSSIVFAELTPEKEKPFGESEVKNENNNLVSYTANLVVRNSSESESSIELQEDGLTDLSVRPVVRHQLPLGHSSELEGNFTSTDESSEGNLNLLGQTEVRYHLMLHIQMQLCELSLWDWITERNKRSREYVDEAACPYVMASVATKIFQELVEGVFYIHNMGIVHRDLKPRNIFLHGPDQQVKIGDFGLACADIIQNADWTNRNGKGTRTHTSRVGTCLYASPEQLEGSQYDAKSDMYSLGVILLELFQPFGTEMERATVLTGVRTGRIPESLSKRCPVQAKYIQLLTGRNVSQRPSALQLLQSELFQTTGNVNLTLQMKIIEQEKEIEELKKQLSLLSQDRGLKR
# Variants of: B1
# Conditions: with if2a_mouse Eif2s1, Q6ZWX6
# Chain of if2a_mouse Eif2s1, Q6ZWX6 (Q6ZWX6 whole entry): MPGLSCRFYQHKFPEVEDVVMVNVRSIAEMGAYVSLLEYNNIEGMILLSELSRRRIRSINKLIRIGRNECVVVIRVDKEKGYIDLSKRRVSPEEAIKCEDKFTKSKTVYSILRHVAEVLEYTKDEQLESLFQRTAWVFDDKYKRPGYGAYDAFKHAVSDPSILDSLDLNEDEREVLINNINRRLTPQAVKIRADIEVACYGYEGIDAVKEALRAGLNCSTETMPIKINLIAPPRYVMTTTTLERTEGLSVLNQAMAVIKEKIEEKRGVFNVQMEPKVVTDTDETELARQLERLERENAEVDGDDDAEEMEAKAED
row,effect of a mutation on the interaction,Variant
1,disrupting interaction,T490A

# Variants of: B1
# Conditions: with if2a_mouse Eif2s1, Q6ZWX6
# Remark: another data set of the same source
row,effect of a mutation on the interaction,Variant
1,disrupting interaction,S502A

# Variants of: B1
# Conditions: with if2a_mouse Eif2s1, Q6ZWX6
# Remark: another data set of the same source
row,effect of a mutation on the interaction,Variant
1,decreasing interaction,T485A

# Variants of: B1
# Conditions: with if2a_mouse Eif2s1, Q6ZWX6
# Remark: another data set of the same source
row,effect of a mutation on the interaction,Variant
1,decreasing interaction,Y193F

# Variants of: B1
# Conditions: with if2a_mouse Eif2s1, Q6ZWX6
# Remark: another data set of the same source
row,effect of a mutation on the interaction,Variant
1,disrupting interaction,K196R

# Variants of: B1
# Conditions: with if2a_mouse Eif2s1, Q6ZWX6
# Remark: another data set of the same source
row,effect of a mutation on the interaction,Variant
1,decreasing interaction,H119A
2,decreasing interaction,H120A
